Assay results: patent publication US20260242478A1 (published 2026)
Where no end group is shown, it is not given here.

Key:
[1] = biological target: T1, Anti-PSMA Fab; experiment: clonal phage ELISA; biotinylated PSMA Fab on neutravidin plate, blocking buffer alone; anti-M13 HRP detection;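 also: crude clonal phage supernatants added without washing to wells pretreated with blocking buffer with or without PSMA antigen, short incubation, then washed before detecting bound phage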
T1 construct: also called 006 PSMA Fab
Description: (§1) Clonal phage were harvested as crude supernatants and screened via standard ELISAs. […] Prior to the addition of clonal phage. wells were incubated with blocking buffer and PSMA antigen or blocking buffer alone. Without washing or aspirating, clonal phage supernatants were then added to the wells and incubated for a short time. Wells were then washed followed by detection of bound phage using a horse radish conjugated anti-M13 antibody.

[2] = biological target: T1, Anti-PSMA Fab; experiment: clonal phage ELISA; biotinylated PSMA Fab on neutravidin plate, wells pre-incubated with PSMA antigen as competitor; anti-M13 HRP detection;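 also: crude clonal phage supernatants added to antigen-treated wells without a wash, incubated briefly, then bound phage read out via horse radish–conjugated anti-M13 antibody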
Description: as §1

[3] = biological target: T2, PSMA Fab (006 PSMA Fab) (biotinylated (site not stated)); experiment: clonal phage ELISA on captured PSMA Fab, wells pre-incubated with PSMA antigen as competitor
T2 construct: also called Anti-PSMA Fab

[4] = biological target: T2, PSMA Fab (006 PSMA Fab); experiment: clonal phage ELISA on biotinylated PSMA Fab captured on neutravidin plates, anti-M13 HRP detection;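 also: crude clonal phage supernatants tested, before phage were added, wells were pretreated with PSMA antigen in blocking buffer or with blocking buffer only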
Description: as §1

[5] = biological target: T3, PSMA Fab (006 PSMA Fab); experiment: clonal phage ELISA on captured PSMA Fab pre-incubated with PSMA antigen as competitor;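 also: crude clonal phage supernatants added to wells without washing away the PSMA competitor, bound phage detected by HRP-conjugated anti-M13 antibody, reference wells received blocking buffer only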
T3 construct: also called Anti-PSMA Fab
Description: as §1

[6] = biological target: T3, PSMA Fab (006 PSMA Fab); experiment: clonal phage ELISA on biotinylated PSMA Fab captured on neutravidin plates, anti-M13 HRP detection;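 also: crude clonal phage supernatants tested, before phage were added, wells were pretreated with PSMA antigen in blocking buffer or with blocking buffer only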
Description: as §1

[7] = biological target: T4, PSMA Fab (006 PSMA Fab) (biotinylated (site not stated)); experiment: clonal phage supernatant on captured PSMA Fab pre-incubated with the competitor PSMA antigen, anti-M13-HRP detection
T4 construct: Biotinylated PSMA Fab captured on neutravidin coated plates in the phage ELISA; also called Anti-PSMA Fab; anti-PSMA Fab

[8] = biological target: T4, PSMA Fab (006 PSMA Fab); experiment: clonal phage supernatant on biotinylated PSMA Fab captured on neutravidin plate, anti-M13-HRP detection;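 also: before phage were added, wells received PSMA antigen in blocking buffer or blocking buffer alone, with no wash in between, followed by a short phage incubation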
Description: as §1

Binder	Phage binding ELISA signal, Anti-PSMA Fab [1]	Phage binding ELISA signal, Anti-PSMA Fab in presence of PSMA [2]	Phage binding ELISA signal, Anti-PSMA Fab with PSMA antigen [5]	Phage binding ELISA signal, Anti-PSMA Fab [6]	further results
VNERCIPDWMCVGF [Phage-3691]	1.46	0.0649			
YIQACKPRWMCNGF [Phage-3667 (peptide-180 library clone)]					Phage binding ELISA signal, Anti-PSMA Fab in presence of PSMA [3]: 0.0874; Phage binding ELISA signal, Anti-PSMA Fab [4]: 1.49
STSWCSPPWMCEGF [Phage-3683]			0.0631	1.47	
LVKHCVPDWMCSGF [Phage-3677]			0.101	1.48	
DAMMCKPTWMCDGF [Phage-3675]			0.0662	1.48	
DERMCRPAWMCEGL [Phage-3682]			0.102	1.47	
YTVQCVPTWMCAGL [Phage-3680]			0.0609	1.47	
GLPYCVPSWMCDGF [Phage-3700]	1.44	0.0858			
ALSMCVPQWMCQGF [Phage-3690]	1.46	0.0597			
EHIRCQPSWMCWGF (cysteine pairing not given here; also: displayed on phage as pIII fusion, not shown: pIII filament protein of the bacteriophage) [Phage-3709]					Phage binding ELISA signal, Anti-PSMA Fab in presence of PSMA antigen [7]: 0.128; Phage binding ELISA signal, Anti-PSMA Fab [8]: 1.43
MIKMCKPYWMCEAM [Phage-3679]			0.0794	1.48	
LQVLCVPDWMCAGF [Phage-3668 (peptide-180 library clone)]					Phage binding ELISA signal, Anti-PSMA Fab in presence of PSMA [3]: 0.091; Phage binding ELISA signal, Anti-PSMA Fab [4]: 1.49
MSMSCVPLWMCSGF (not shown: pIII filament protein of the bacteriophage) [Phage-3705]					Phage binding ELISA signal, Anti-PSMA Fab in presence of PSMA antigen [7]: 0.0698; Phage binding ELISA signal, Anti-PSMA Fab [8]: 1.43
EMSLCIPAWMCSVF [Phage-3685]			0.0677	1.47	
EVRRCEPSWMCSVV [Phage-3666 (peptide-180 library clone)]					Phage binding ELISA signal, Anti-PSMA Fab in presence of PSMA [3]: 0.0749; Phage binding ELISA signal, Anti-PSMA Fab [4]: 1.49
MIAMCKPPWMCIGL [Phage-3687]	1.47	0.0954			
VDHMCKPMWMCNGF (not shown: pIII filament protein of the bacteriophage) [Phage-3707]					Phage binding ELISA signal, Anti-PSMA Fab in presence of PSMA antigen [7]: 0.0673; Phage binding ELISA signal, Anti-PSMA Fab [8]: 1.43
TVPRCVPAWMCNWS [Phage-3694]	1.45	0.0917			
SQHSCIPSWMCNGF [Phage-3695]	1.45	0.154			
SEHYCVPNWMCAGL [Phage-3693]	1.46	0.0995			
LPHACKPSWMCQGF [Phage-3689]	1.47	0.0636			
PGALCVPFWMCQGF (not shown: pIII filament protein of the bacteriophage) [Phage-3702]					Phage binding ELISA signal, Anti-PSMA Fab in presence of PSMA antigen [7]: 0.108; Phage binding ELISA signal, Anti-PSMA Fab [8]: 1.44
